This assay deals with T1, MLO-Y4 cell surface proteins (Mus musculus, UniProt B1AVY7).
T1 construct: endogenous in cells; host or cells: MLO-Y4
T1 sequence (B1AVY7 1-1312): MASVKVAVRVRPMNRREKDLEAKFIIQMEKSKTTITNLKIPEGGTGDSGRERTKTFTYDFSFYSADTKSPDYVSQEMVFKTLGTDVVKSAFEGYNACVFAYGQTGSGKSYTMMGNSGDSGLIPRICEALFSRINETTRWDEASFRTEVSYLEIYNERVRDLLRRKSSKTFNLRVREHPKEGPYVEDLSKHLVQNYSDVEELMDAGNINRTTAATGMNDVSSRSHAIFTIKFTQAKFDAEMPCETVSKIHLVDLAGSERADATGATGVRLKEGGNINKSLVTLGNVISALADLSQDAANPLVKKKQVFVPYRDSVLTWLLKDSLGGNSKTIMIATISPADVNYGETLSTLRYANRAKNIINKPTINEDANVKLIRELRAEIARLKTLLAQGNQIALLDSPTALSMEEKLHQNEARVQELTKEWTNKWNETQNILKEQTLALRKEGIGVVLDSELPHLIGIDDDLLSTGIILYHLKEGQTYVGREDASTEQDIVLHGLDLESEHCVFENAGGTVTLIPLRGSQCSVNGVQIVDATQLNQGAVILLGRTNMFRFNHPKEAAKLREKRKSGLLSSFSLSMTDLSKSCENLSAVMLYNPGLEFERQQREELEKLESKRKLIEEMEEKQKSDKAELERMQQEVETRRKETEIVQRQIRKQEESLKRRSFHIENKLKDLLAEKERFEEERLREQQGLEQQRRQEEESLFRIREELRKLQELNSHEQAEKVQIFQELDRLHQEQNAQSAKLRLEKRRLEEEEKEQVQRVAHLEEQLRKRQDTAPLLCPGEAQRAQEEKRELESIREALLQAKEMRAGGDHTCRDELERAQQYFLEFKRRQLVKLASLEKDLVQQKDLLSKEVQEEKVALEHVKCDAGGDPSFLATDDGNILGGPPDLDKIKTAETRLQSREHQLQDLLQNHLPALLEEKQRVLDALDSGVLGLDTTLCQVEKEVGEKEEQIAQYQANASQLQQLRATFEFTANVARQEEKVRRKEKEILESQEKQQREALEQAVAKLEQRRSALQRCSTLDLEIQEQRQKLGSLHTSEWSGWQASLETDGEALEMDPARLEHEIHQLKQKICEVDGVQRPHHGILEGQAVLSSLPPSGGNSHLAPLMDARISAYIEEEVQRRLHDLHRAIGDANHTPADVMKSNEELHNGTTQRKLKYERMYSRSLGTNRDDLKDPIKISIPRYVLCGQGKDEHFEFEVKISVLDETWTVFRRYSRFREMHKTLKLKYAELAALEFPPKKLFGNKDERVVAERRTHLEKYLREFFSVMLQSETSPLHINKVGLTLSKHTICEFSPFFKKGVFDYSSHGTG
Put plainly: Crosslinking/co-immunoprecipitation/mass spectrometry (TMT quantitative proteomics) to identify irisin receptors. The assay is classed as binding. As to conditions: co-precipitated protein Kif16b (KI16B_MOUSE). The essentials: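 Relative protein abundance came from 6-plex TMT MS3 quantitation on an Orbitrap Fusion Lumos, after in-gel trypsin digestion of Coomassie-stained SDS-PAGE lanes. Input was a Ni-NTA pulldown (250 mM imidazole elution) of lysates from murine MLO-Y4 cells. These cells were treated on ice with His-tagged irisin or adipsin (10 nM, 20 min) in serum-free medium, then crosslinked with 1.5 mM DTSSP for 30 min.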

With adipsin, the TMT signal-to-noise ratio came to 1117.61.
